Where no end group is shown, it is not given here.
What was measured:
recombinant human FAPα [1] = molecular target: T1, recombinant human FAPα (Homo sapiens, UniProt Q12884); test: Multiplex substrate profiling by mass spectrometry (MSP-MS); assay type: biochemical; conditions: for # of cleavages on MS: top P4-P4′ peptides cleaved by human FAP alpha; for # of cleavages on MSP-MS: human FAP alpha
T1 sequence (Q12884 26-760 limits assumed): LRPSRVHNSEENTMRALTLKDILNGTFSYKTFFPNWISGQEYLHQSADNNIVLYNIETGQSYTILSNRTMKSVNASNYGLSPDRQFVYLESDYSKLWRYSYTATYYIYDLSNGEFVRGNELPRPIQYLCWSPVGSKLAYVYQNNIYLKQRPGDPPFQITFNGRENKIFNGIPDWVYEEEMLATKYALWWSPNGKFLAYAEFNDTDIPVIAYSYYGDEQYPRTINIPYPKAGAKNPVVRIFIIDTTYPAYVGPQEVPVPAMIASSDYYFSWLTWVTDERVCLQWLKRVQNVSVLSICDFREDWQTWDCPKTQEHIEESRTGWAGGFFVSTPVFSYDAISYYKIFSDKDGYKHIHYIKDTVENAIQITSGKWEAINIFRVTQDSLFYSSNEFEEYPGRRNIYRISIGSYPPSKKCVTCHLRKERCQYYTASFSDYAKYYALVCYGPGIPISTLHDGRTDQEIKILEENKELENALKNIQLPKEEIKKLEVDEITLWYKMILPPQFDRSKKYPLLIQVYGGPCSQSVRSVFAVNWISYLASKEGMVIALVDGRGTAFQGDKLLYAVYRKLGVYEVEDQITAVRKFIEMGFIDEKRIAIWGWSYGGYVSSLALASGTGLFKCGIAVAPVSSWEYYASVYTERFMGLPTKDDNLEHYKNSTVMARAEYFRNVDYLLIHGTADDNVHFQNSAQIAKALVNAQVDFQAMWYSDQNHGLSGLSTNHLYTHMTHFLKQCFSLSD
Protocol: Although much is known about the substrate preferences for FAPα from P4-P1, an optimal P4-P4′ substrate sequence for FAPα has never been defined. In this example, multiplex substrate profiling by mass spectrometry (MSP-MS) was performed to identify candidate FAPα P4-P4′ substrate sequences for potential inclusion in a FAPα targeted restricted interaction peptide (or “FRIP”).
Shown on the top of FIG. 3 is an Icelogo representing the cumulative amino acid preferences for recombinant human FAPα. Shown on the bottom of FIG. 3 is a heat map summarizing the amino acids that were most frequently incorporated at each site in the cleavage products. Lighter indicates an enriched amino acid. X=no preferred amino acid.
A list of the top P4-P4′ peptides cleaved by human FAP alpha as determined using the MSP-MS substrate profiling technology are shown in the following table, where X indicates an undefined amino acid site.

recombinant human FAPα [2] = molecular target: T1, recombinant human FAPα; test: Kinetics of FRET donor/acceptor 8 mer substrates under Michaelis-Menten conditions; assay type: biochemical; conditions: FRET donor/acceptor substrate adducts, human recombinant FAP alpha
Protocol: Three top hits, […] (SEQ ID NO:38), […] (SEQ ID NO:40), and […] (SEQ ID NO:42), were selected for further analysis. An 8 mer peptide bearing FRET donor-acceptor dyes on the N and C terminus was synthesized and evaluated as a substrate for recombinant human FAPα (RND Systems) under Michaelis-Menten conditions.
A table summarizing the kinetic properties of three of the top P4-P4′ 8 mer peptides emerging from the MSP-MS assay is provided below, where the kinetic properties were determined using FRET donor/acceptor substrate adducts and human recombinant FAP alpha.

| Molecule | # of cleavages on MS (recombinant human FAPα [1]) | further results |
| --- | --- | --- |
| CN(CCCN1CCN(C(=O)CN2CCN(CC(=O)O)CCN(CC(=O)O)CCN(CC(=O)O)CC2)CC1)c1ccc2nccc(C(=O)NCC(=O)N3CC(F)(F)C[C@H]3C#N)c2c1 [FAPI 46] |  | Tumor dose (Tumor dose per isotope; Ac-225): 720 Gy/mCi; Tumor dose (Tumor dose per isotope; Cu-64): 2 Gy/mCi; Tumor dose (Tumor dose per isotope; Cu-67): 11 Gy/mCi; Tumor dose (Tumor dose per isotope; Lu-177): 16 Gy/mCi; Tumor dose (Tumor dose per isotope; Y-90): 42 Gy/mCi |
| GMGPFHIV | 12 |  |
| HIGPTAAY (also: FRET fluorophore/quencher labels) [tested as 8 mer FRET peptide] | 43 | # of cleavages on MSP-MS (recombinant human FAPα [1]): 43; Km (recombinant human FAPα [2]): 2.45 µM; kcat (recombinant human FAPα [2]): 0.2986 s⁻¹ |
| HQGPFWML (also: FRET labels) [tested as 8 mer FRET peptide] | 30 | # of cleavages on MSP-MS (recombinant human FAPα [1]): 30; Km (recombinant human FAPα [2]): 1.34 µM; kcat (recombinant human FAPα [2]): 0.1041 s⁻¹ |
| HYGPTVNK (also: FRET labels) [tested as 8 mer FRET peptide] | 28 | # of cleavages on MSP-MS (recombinant human FAPα [1]): 28; Km (recombinant human FAPα [2]): 2.7 µM; kcat (recombinant human FAPα [2]): 0.04031 s⁻¹ |
| XSGPDYQK | 14 |  |
| XXFPNMWS | 23 |  |
| XXGPKLTY | 28 |  |
| XXGSQVFS | 21 |  |
| XXHPTKSF | 16 |  |
| XXIARQPW | 14 |  |
| XXIPTNIR | 41 |  |
| XXMPEEVA | 17 |  |
| XXWPMGMY | 26 |  |
| YHGPLAHX | 98 |  |

From patent US20260115332A1, “Fibroblast Activation Protein Alpha-Cleavable Pro-Peptides and Methods of Use” (The Regents of the University of California, priority 2022, published 2026)
